Test results published in patent US20190127480A1 (Regeneron, published 2019).
Numbering of substitutions follows the chain as printed.

B1: BSPSMA/CD3-1200 (bispecific antibody, IgG4, V domains shown)
VH 1: QVQLVESGGGVVQPGRSLRLSCAASGFTFSSYGMHWVRQAPGKGLEWVAVISYAGNNKYYADSVKGRFTVSRDNSKKTLYLQMNSLRSEDTAVYYCAKDSYYDFLTDPDVLDIWGQGTMVTVSS
VH 2: EVQLVESGGGLVQPGRSLRLSCAASGFTFDDYSMHWVRQAPGKGLEWVSGISWNSGSIGYADSVKGRFTISRDNAKNSLYLQMNSLRAEDTALYYCAKDGSGYGKFYHYGLDVWGQGTTVTVSS
VL: DIQMTQSPSSLSASVGDSVTITCRASQSINNYLNWYQQKPGKAPKLLIYTASSLLSGVPSRFSGSGSGTDFTLTISGLHPEDFATYFCQQSFSTPPITFGQGTRLDIK
notes: modified (chimeric) IgG4 Fc domain; also called PSMA-VH-11810 x CD3-VH-G12
B2: H1H7221P (antibody, human IgG1, V domains shown)
VH: B1 VH 2 with A23V, I58K, G59D, D99Y
VL: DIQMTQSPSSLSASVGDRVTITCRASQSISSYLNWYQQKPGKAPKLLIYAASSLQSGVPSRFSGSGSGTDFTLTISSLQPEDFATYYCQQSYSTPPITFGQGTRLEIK
notes: Monovalent 1-arm format: second Fab removed, only the Fc portion (CH2-CH3) expressed; human IgG1 Fc; tied by the numerical identifier; also called H1H7221B
B3: BSPSMA/CD3-1600 (bispecific antibody, IgG4, V domains shown)
VH 1: B1 VH 1
VH 2: B1 VH 2 with I58K, L111M
VL: B1 VL
notes: modified (chimeric) IgG4 Fc domain; also called PSMA-VH-11810 x CD3-VH-G16
B4: BSPSMA/CD3-1500 (bispecific antibody, IgG4, V domains shown)
VH 1: B1 VH 1
VH 2: B1 VH 2 with I58K, H108Y
VL: B1 VL
notes: modified (chimeric) IgG4 Fc domain; also called PSMA-VH-11810 x CD3-VH-G15
B5: BSPSMA/CD3-1900 (bispecific antibody, IgG4, V domains shown)
VH 1: B1 VH 1
VH 2: B1 VH 2 with L111M
VL: B1 VL
notes: modified (chimeric) IgG4 Fc domain; also called PSMA-VH-11810 x CD3-VH-G19
B6: BSPSMA/CD3-2100 (bispecific antibody, IgG4, V domains shown)
VH 1: B1 VH 1
VH 2: B1 VH 2 with I58K, H108Y, L111M
VL: B1 VL
notes: modified (chimeric) IgG4 Fc domain; also called PSMA-VH-11810 x CD3-VH-G21
B7: H1H7196P (antibody, human IgG1, V domains shown)
VH: EVQLVESGGGMVQPGRSLRLSCAASGFPFNDYTMHWVRQVPGRGLEWVSDISWNSGSKGYADSVKGRFIISRDNAKNSLYLQMNSLRVEDTALYYCVKDGSGYGRFHYYAMDVWGQGTTVTVSS
VL: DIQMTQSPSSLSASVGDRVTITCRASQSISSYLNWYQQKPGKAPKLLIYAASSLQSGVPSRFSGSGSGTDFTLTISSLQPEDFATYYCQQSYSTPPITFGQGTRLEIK
notes: Monovalent 1-arm format: second Fab removed, only the Fc portion (CH2-CH3) expressed; human IgG1 Fc; tied by the numerical identifier; also called H1H7196B
B8: H1H7242P (antibody, human IgG1, V domains shown)
VH: EVQLVESGGGLVQPGRSLRLSCAASGFTFDDYTMHWVRQGPGKGLEWVSDIGWNSNSIGYADSVKGRFTISRDNAKNSLYLQMNSLRPEDTALYFCVKDKSGYGKFFIGLDVWGQGTMVTVSS
VL: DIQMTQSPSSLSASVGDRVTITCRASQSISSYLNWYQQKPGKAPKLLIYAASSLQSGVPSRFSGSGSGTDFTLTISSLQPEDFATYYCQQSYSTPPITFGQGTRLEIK
notes: Monovalent 1-arm format: second Fab removed, only the Fc portion (CH2-CH3) expressed; human IgG1 Fc; tied by the numerical identifier; also called H1H7242B
B9: H1H7250P (antibody, human IgG1, V domains shown)
VH: B8 VH with E1Q, S57T, I58K
VL: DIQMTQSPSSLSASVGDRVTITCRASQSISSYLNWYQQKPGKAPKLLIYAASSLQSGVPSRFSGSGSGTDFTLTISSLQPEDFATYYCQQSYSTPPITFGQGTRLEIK
notes: Monovalent 1-arm format: second Fab removed, only the Fc portion (CH2-CH3) expressed; human IgG1 Fc; tied by the numerical identifier; also called H1H7250B
B10: H1H7254P (antibody, human IgG1, V domains shown)
VH: B8 VH with L11V, T28K, D31G, S57T
VL: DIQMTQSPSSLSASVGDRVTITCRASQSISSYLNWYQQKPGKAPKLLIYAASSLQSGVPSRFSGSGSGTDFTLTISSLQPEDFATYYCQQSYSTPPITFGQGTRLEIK
notes: Monovalent 1-arm format: second Fab removed, only the Fc portion (CH2-CH3) expressed; human IgG1 Fc; tied by the numerical identifier; also called H1H7254B
B11: H1H7251P (antibody, human IgG1, V domains shown)
VH: EVQLVESGGGLVQPGRSLRLSCAASGFTFADYTMHWVRQGPGTGLEWVSDIGWSGGSLGYADSVKGRFTISRDNAKNSLYLEMNNLRPEDTALYYCVKDKSGYGKFQYGLDVWGQGTTVTVSS
VL: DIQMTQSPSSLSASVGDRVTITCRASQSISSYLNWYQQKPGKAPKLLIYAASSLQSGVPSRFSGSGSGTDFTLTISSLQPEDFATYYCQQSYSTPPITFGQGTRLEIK
notes: Monovalent 1-arm format: second Fab removed, only the Fc portion (CH2-CH3) expressed; human IgG1 Fc; tied by the numerical identifier; also called H1H7251B
B12: H1H7258P (antibody, human IgG1, V domains shown)
VH: B8 VH with E1Q, S57T, K76R, F95Y, F107Q, I108Y, M118T
VL: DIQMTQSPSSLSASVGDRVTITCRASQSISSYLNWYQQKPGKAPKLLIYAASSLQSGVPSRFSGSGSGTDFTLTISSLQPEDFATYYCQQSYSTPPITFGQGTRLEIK
notes: Monovalent 1-arm format: second Fab removed, only the Fc portion (CH2-CH3) expressed; human IgG1 Fc; tied by the numerical identifier; also called H1H7258B
B13: H1H7241P (antibody, human IgG1, V domains shown)
VH: B8 VH with D30A, S57T, T69A, F95Y, F107Q, I108Y, M118T
VL: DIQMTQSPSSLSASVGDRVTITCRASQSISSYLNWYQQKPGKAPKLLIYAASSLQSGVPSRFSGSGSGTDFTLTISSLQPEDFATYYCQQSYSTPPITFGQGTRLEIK
notes: Monovalent 1-arm format: second Fab removed, only the Fc portion (CH2-CH3) expressed; human IgG1 Fc; tied by the numerical identifier; also called H1H7241B
B14: H1H7194P (antibody, human IgG1, V domains shown)
VH: EVQLVESGGGLVQPGRSLRLSCAASGFTFGDYTMHWVRQAPGKGLEWVSDISWNSGSKDYADSVKGRFTISRDNAKNSLYLQMNSLRTEDTAFYYCAKDSRGYGLYYHLGLDVWGQGTTVTVSS
VL: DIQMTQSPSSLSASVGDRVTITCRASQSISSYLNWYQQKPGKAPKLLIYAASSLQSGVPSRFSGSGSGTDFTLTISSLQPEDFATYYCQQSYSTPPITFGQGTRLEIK
notes: Monovalent 1-arm format: second Fab removed, only the Fc portion (CH2-CH3) expressed; human IgG1 Fc; tied by the numerical identifier; also called H1H7194B
B15: H1H7195P (antibody, human IgG1, V domains shown)
VH: B14 VH with G30A, K58I, D59A, L105H, Y107K, H108Y
VL: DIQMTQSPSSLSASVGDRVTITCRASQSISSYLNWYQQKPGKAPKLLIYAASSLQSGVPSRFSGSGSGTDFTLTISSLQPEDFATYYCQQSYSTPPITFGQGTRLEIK
notes: Monovalent 1-arm format: second Fab removed, only the Fc portion (CH2-CH3) expressed; human IgG1 Fc; tied by the numerical identifier; also called H1H7195B

Assays:
[1] = target: T1, human PSMA on PSMA-expressing cells (human, UniProt Q04609 1-750); experiment: FACS on B16F10.9/PSMA cells
T1 construct: Cell line is named under assay or readout in each row; also called B16F10.9/hPSMA; B16F10.9/PSMA
Method: (§1) Briefly, 2×10⁵ cells/well of human CD3-expressing Jurkat, cynomolgus T, or human PSMA-specific expressing cells were incubated with a serial dilution of bispecific antibodies for 30 min at 4° C. After incubation, cells were washed and a goat F(ab′)₂ anti-human Fcγ PE labeled secondary (Jackson Immunolabs) was added to the cells for an additional 30 min. Next, cells were washed, re-suspended in cold PBS+1% BSA and analyzed via flow cytometry on a BD FACS Canto II.
(§2) For FACS analysis, cells were gated by forward scatter height vs. forward scatter area for single events selection, followed by side and forward scatters. The EC₅₀ for cell binding titration was determined using Prism software. Values were calculated using 4-parameter non-linear regression analysis.

[2] = target: T2, human CD3 on CD3-expressing cells (Jurkat, human T cells) (human, UniProt P07766 23-207; P04234 22-171); experiment: FACS on Jurkat cells
T2 construct: On cells CD3 stands within the T cell receptor complex (also gamma and zeta chains); also called human CD3 expressing Jurkat cells
Method: as §1, §2

[3] = target: T3, soluble heterodimeric hCD3ε/δ.mFc protein (human); experiment: SPR MASS-1, 37 C, antigen-capture (hCD3ε/δ.mFc captured), antibody injected
T3 construct: also called soluble human CD3; soluble heterodimeric CD3 protein
T3 chain 1: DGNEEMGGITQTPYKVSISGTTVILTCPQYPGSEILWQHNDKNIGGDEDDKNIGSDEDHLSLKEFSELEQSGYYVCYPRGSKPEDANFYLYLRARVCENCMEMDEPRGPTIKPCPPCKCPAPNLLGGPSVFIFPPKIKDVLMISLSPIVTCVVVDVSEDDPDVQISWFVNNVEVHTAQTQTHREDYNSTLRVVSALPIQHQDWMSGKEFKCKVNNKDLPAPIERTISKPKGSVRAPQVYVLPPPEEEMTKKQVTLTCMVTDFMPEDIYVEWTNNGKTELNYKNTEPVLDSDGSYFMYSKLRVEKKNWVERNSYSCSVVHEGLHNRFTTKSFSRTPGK
T3 chain 2: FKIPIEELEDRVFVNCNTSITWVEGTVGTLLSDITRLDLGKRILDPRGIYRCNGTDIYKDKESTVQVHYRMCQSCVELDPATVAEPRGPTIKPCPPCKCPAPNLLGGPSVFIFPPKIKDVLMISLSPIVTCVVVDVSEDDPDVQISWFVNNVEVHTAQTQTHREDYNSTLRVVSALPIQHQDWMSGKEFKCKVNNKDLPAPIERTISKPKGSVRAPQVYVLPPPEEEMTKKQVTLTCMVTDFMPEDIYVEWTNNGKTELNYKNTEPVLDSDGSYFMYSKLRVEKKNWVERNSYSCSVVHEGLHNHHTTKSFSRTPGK
Method: Measurements were conducted on a Sierra Sensors MASS-1 instrument.
In the antigen-capture format, the MASS-1 high-density amine sensor surface was derivatized with a goat anti-mouse IgG2a polyclonal antibody (Southern Biotech). Soluble heterodimeric CD3 protein was captured and the respective antibodies were injected over the captured antigen.
Kinetic association (kₐ) and dissociation (kd) rate constants were determined by processing and fitting the data to a 1:1 binding model using MASS-1 AnalyserR2 curve fitting software. Binding dissociation equilibrium constants (KD) and dissociative half-lives (t_{1/2}) were calculated from the kinetic rate constants as: KD (M)=kd/kₐ; and t_{1/2} (min)=(ln 2/(60*kd).

[4] = target: T4, human CD3 expressed on cells (Jurkat cells; human T-cells of PBMC) (human, UniProt P09693 23-182; P20963 22-164); experiment: cell-based or functional assay
[5] = target: T4, human CD3 expressed on cells (Jurkat …); experiment: FACS titration on Jurkat cells, monovalent 1-arm antibody
Method: FACS data was acquired using the following protocol: Cells at 2×10⁵ per well were incubated with serially diluted antibodies for 30 min on ice. Post incubation, cells were washed and secondary antibody was added and incubated for an additional 30 minutes. After incubation, cells were washed, re-suspended in cold PBS containing 1% BSA and analyzed by flow cytometry with viable Jurkat cells gated by side and forward scatters. The EC₅₀s for cell binding titration were determined using Prism software with values calculated using a 4-parameter non-linear regression analysis.

[6] = target: cynomolgus monkey CD3 expressed on monkey T-cells (PBMCs) (cynomolgus monkey, UniProt Q95LI5 22-198; Q95LI8 22-171); experiment: cell-based or functional assay
[7] = target: T4, human CD3 expressed on cells (Jurkat …); experiment: cell-based or functional assay; remark: listed apart in the source

Sequence of cynomolgus monkey CD3 expressed on monkey T-cells (PBMCs) (Q95LI5 22-198, chain 1 of 2): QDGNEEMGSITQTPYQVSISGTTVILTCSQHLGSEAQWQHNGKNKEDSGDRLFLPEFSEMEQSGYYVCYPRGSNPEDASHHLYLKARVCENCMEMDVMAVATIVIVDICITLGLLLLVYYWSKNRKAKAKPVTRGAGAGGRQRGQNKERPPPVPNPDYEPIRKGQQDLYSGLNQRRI
Sequence of cynomolgus monkey CD3 expressed on monkey T-cells (PBMCs) (Q95LI8 22-171, chain 2 of 2): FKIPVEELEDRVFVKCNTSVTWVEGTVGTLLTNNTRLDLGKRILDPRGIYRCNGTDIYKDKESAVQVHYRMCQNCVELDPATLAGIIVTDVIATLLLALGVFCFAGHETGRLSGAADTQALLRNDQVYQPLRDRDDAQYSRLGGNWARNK
T4 sequence (chain, as listed by the source, chain 1 of 4): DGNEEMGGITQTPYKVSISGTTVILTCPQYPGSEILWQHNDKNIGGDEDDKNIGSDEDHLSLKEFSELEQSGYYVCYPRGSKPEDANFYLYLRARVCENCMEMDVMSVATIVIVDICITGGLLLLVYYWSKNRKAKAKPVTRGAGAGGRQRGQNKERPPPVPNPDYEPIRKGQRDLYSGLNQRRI
T4 sequence (chain, as listed by the source, chain 2 of 4): as the sequence (Q95LI8 22-171, chain 2 of 2) above, with V5I, K15N, V20I, T32S, N33D, N34I, A64T, N74S, L83V, R141H counted along it
T4 sequence (P09693 23-182, chain 3 of 4): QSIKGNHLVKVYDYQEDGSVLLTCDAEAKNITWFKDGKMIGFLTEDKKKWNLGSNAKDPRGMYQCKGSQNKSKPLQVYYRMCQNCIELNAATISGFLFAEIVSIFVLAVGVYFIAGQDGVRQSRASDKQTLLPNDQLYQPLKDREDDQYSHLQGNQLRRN
T4 sequence (P20963 22-164, chain 4 of 4): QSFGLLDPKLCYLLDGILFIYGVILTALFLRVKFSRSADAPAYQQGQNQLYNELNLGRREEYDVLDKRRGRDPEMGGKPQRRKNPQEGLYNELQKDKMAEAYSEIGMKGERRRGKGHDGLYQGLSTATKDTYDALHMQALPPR
T2 sequence (P07766 23-207 limits assumed, chain 1 of 2): as the sequence (chain, as listed by the source, chain 1 of 4) above
T2 sequence (P04234 22-171 limits assumed, chain 2 of 2): as the sequence (Q95LI8 22-171, chain 2 of 2) above, with V5I, K15N, V20I, T32S, N33D, N34I, A64T, N74S, L83V, R141H counted along it
T1 sequence (Q04609 whole entry): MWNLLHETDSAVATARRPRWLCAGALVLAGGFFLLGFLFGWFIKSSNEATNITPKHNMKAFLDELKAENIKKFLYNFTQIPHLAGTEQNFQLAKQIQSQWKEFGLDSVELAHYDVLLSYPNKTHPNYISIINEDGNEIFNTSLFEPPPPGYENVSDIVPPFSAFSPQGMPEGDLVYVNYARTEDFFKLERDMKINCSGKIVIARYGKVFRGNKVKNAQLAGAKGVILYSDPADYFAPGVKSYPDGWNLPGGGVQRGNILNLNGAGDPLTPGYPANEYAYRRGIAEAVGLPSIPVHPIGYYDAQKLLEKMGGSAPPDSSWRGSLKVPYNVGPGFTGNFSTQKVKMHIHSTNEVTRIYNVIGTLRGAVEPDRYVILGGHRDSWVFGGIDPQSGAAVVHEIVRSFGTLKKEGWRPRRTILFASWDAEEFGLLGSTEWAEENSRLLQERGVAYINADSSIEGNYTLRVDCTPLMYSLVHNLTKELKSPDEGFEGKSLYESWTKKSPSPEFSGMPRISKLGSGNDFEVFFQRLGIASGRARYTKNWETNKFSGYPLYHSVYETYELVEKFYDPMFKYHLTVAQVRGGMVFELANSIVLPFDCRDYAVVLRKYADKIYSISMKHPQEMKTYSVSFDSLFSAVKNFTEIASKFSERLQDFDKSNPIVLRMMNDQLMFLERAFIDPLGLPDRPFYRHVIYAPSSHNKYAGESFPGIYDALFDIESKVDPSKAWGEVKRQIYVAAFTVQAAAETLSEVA

Binder	EC50 [1] [nM]	EC50 [2] [nM]	Kd [3] [nM]	T½ [3] [min]	koff [3] [s⁻¹]	kon [3] [M⁻¹ s⁻¹]	EC50 [M] hPBMC Proliferation [4] [M]	EC50 [5] [nM]	EC50 [M] mfPBMC Proliferation [6] [M]	U937 Cytotoxicity Human T-cells [7] [pM]
B1	1.16	47.2	64.2	4.7	0.00247	38500				
B2							2.6e-12	1.4	1.72e-12	9.21
B3	1.03	56.8	37.8	4.7	0.00243	64300				
B4	1.21	93	82.9	1.9	0.00611	73600				
B5	1.35	60.7	115	2.3	0.00509	44300				
B6	1.14	106	77.5	4.9	0.00234	30200				
B7							1.27e-12	34.4	1.4e-08	19.6
B8							2.13e-12	1.83	1.38e-11	7.5
B9							2.43e-12	1.37	7.27e-11	5.91
B10							2.8e-12	1.09	8.88e-11	4.18
B11							1.3e-12	1.45	1.83e-11	1.81
B12							2.17e-12	1.07	1.11e-11	15.3
B13							1.05e-12	1.01	2.05e-11	12.3
B14							2.37e-12	1.5	4.84e-12	4.71
B15							2.42e-12	0.342	1.36e-12	6.1
